No end group written: not given here. *: point of attachment. Biotin = O=C1N[C@H]2[C@H](CS[C@H]2CCCCC(=O)*)N1; KLH = keyhole limpet hemocyanin
T1: non-sense KLH-conjugated peptide IRQCPDRTYG-GGC-KLH
T1 peptide: IRQCPDRTYGGGC(KLH)

T2: non-sense coater peptide Biotin-SHAHQRTGGN
T2 construct: Control coater on the streptavidin plate
T2 peptide: Biotin-SHAHQRTGGN

B1: monoclonal antibody targeting PRO-C20 (antibody produced by the best performing clone) (antibody, V domains shown)
VH: QIQLMQSGPELKKPGETVKISCKASGYPFTDYSMHWVKQAPGKGLKWMGWINTETGEPTYADGFKGRFAFSLETSASTAYLKINNLKNDDTATYFCARGPYWGQGTLVTVSA
VL: DVLLTQTPLSLPVSLGDQASISCRSSQSIVHNNGKIYLEWFLQKPGQSPKALIQKVSNRFSGVPDRFSGSGSGTDFTLKISRVEAEDLGVYYCFQGSHVPYTFGGGTKLEIKR
notes: Mouse hybridoma antibody (Balb/C mice), purified on protein G and HRP-labelled in the final ELISA; also called HRP-labelled monoclonal antibody; the monoclonal antibody
B2: standard peptide RHLEGRGEPGAVGQMGSPGQQGASTQGLWE (peptide)
peptide: RHLEGRGEPGAVGQMGSPGQQGASTQGLWE
notes: Synthetic 30-mer corresponding to the C-terminus of type XX collagen; also called 30 amino-acid variant

Columns and labels:
[1] = biological target: T1, non-sense KLH-conjugated peptide …; experiment: preliminary competitive ELISA for clone selection
[2] = biological target: T2, non-sense coater peptide …; experiment: ELISA with the non-sense biotinylated peptide as coater on a streptavidin plate
Protocol: Several optimizations were made to the ELISA including the choice of assay buffer, incubation time and temperature as well as concentrations of antibody and peptides. […] After washing five times with washing buffer (25 mM Tris, 50 mM NaCl, pH 7.2), 20 μL/well of sample was added in duplicates followed by 100 μL/well of 50 ng/mL HRP-labelled monoclonal antibody in assay buffer and incubated for 1 hour at 20° C. with shaking at 300 RPM. After a second washing cycle, 100 μL/well of TMB was added and incubated for 15 minutes in darkness at 20° C. with shaking at 300 RPM. The reaction was stopped by adding 100 μL/well of 1% H₂SO₄. Absorbance was measured at 450 nm with 650 nm as reference. To generate a standard curve, 20 μL/well of 50 ng/ml standard peptide ([…] (SEQ ID NO: 6)), serially diluted two-fold, was added to appropriate wells and a four-parametric logistic regression model was used to fit a curve. […]
Antibody specificity was evaluated by the inhibition of signal by two-fold serial dilutions of the standard peptide ([…] (SEQ ID NO: 6)), elongated peptide ([…] (SEQ ID NO: 2)), truncated peptide ([…] (SEQ ID NO: 3)) as well as a non-sense standard peptide ([…] (SEQ ID NO: 8)) and a non-sense coater peptide (Biotin-[…] (SEQ ID NO: 9)).

[3] = biological target: B1; experiment: competitive ELISA: standard peptide against coated Biotin-… for the HRP-labelled antibody
Protocol: After washing five times with washing buffer (25 mM Tris, 50 mM NaCl, pH 7.2), 20 μL/well of sample was added in duplicates followed by 100 μL/well of 50 ng/mL HRP-labelled monoclonal antibody in assay buffer and incubated for 1 hour at 20° C. with shaking at 300 RPM. After a second washing cycle, 100 μL/well of TMB was added and incubated for 15 minutes in darkness at 20° C. with shaking at 300 RPM. The reaction was stopped by adding 100 μL/well of 1% H₂SO₄. Absorbance was measured at 450 nm with 650 nm as reference. […]
Assay variation was tested by running ten independent run of the assay using ten quality control samples in double determinations. […] Intra-assay variation was calculated as the mean coefficient of variance (CV %) between the double determinations on each of the ten runs. Inter-assay variation was calculated as the overall CV % for all determinations on the ten runs. Lower-and upper-limit of the measurement range (LLMR and ULMR) were determined as the concentrations that denotes the limits of the linear range of the assay. Lower limit of detection was calculated as the mean interpolated concentration of 21 blank samples, only containing assay buffer, plus three standard deviations. Upper limit of detection was calculated as the mean interpolated concentration of standard peptide corresponding to the highest concentration of the standard curve minus three standard deviations.

Q: Does B1 bind [1]?
A: no binding

Q: Does B1 bind [2]?
A: no binding

Q: B2 was tested. Which IC50 [3] did it give?
A: 5.59 ng/mL

Reference: patent US20240385191A1 (NORDIC BIOSCIENCE A S, published 2024)
